Patent US20250320309A1 (SHENGHE CHINA BIOPHARMACEUTICAL, published 2025)

Target: T1, human CD24 (human, UniProt P25063 27-59)
T1 chain (looked up): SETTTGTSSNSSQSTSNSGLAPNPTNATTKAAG
Assay: cell-based or functional assay

B1: 1-C2-IgG1 (bispecific antibody)
heavy: not shown
light: DIQMTQSPSTLSASVGDRVTITCSASSSVSSMHWYQQKPGKAPKLLIYSTSNLASGVPSRFSGSGSGTEYTLTISSLQPDDFATYYCHHWTSYMYTFGGGTKVEIKRTVAAPSVFIFPPSDEQLKSGTASVVCLLNNFYPREAKVQWKVDNALQSGNSQESVTEQDSKDSTYSLSSTLTLSKADYEKHKVYACEVTHQGLSSPVTKSFNRGEC
ADCP: phagocytosis of CD24-SKOV3 cells by macrophages, EC50: 13 pM | ADCP: phagocytosis of MCF-7 cells by macrophages, EC50: 4 pM

B2: 1-D2-IgG4 (bispecific antibody)
heavy: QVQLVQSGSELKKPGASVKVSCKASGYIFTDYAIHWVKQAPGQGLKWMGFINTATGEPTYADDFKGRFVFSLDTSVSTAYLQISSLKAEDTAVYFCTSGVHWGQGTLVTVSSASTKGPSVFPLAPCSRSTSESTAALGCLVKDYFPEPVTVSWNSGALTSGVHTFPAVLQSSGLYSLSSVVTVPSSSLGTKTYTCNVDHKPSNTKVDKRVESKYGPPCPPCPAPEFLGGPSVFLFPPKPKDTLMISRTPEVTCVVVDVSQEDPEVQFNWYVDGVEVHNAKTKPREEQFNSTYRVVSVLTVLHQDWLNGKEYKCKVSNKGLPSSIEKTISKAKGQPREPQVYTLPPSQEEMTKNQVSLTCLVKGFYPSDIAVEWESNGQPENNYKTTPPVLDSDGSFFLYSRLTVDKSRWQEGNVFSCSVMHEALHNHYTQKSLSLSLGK
light: DIQMTQSPSTLSASVGDRVTITCSASSSVSSMHWYQQKPGKAPKLLIYSTSNLASGVPSRFSGSGSGTEYTLTISSLQPDDFATYYCHHWTSYMYTFGGGTKVEIKRTVAAPSVFIFPPSDEQLKSGTASVVCLLNNFYPREAKVQWKVDNALQSGNSQESVTEQDSKDSTYSLSSTLTLSKADYEKHKVYACEVTHQGLSSPVTKSFNRGECGGGGSGGGGSQVQLQESGPGLVKPSETLSLTCTVSGSSLTSYGVHWVRQPPGKCLEGLGVIWPGGSTNYNSALMSRVTISKDNSKSQVSLKMSSLTAADTAVYYCARVTGTWYFDVWGQGTTVTVSSGGGGSGGGGSGGGGSDIQMTQSPSSLSASLGDRVTISCSASQGISNYLNWYQQKPDGTVKLLIYYTSTLHSGVPSRFSGSGSGTDYTLTISSLQPEDIATYYCQQYSKLPWTFGCGTKLEIK
ADCP: phagocytosis of CD24-SKOV3 cells by macrophages, EC50: 4 pM | ADCP: phagocytosis of MCF-7 cells by macrophages, EC50: 2 pM
